Like-named read-outs stand apart in the source and are kept apart here. Blank lines part the entries; values can stand above or below the binder they belong to.
Experiments:
Experiment in all cases: SPR
[1] = molecular target: T1, human CD25-extracellular domain (CD25-ECD) (UniProt P01589 22-240)
T1 chain: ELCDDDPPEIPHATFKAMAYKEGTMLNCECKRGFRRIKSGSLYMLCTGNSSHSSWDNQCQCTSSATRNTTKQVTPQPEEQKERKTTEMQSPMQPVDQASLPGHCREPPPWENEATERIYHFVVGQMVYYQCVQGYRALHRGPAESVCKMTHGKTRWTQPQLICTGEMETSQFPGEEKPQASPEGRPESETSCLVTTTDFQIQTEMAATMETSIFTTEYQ

[2] = molecular target: T1, human CD25-extracellular domain …
cCD25 = molecular target: cCD25
[3] = molecular target: T1, human CD25-extracellular domain …
[4] = molecular target: T1, human CD25-extracellular domain …
[5] = molecular target: T1, human CD25-extracellular domain …
[6] = molecular target: T1, human CD25-extracellular domain …
[7] = molecular target: T1, human CD25-extracellular domain …
[8] = molecular target: T1, human CD25-extracellular domain …
[9] = molecular target: T1, human CD25-extracellular domain …

- Kd [7]: 10 nM
B20: ODY-N2027Hu1 (antibody, V domains shown)
VH: EVQLLESGGGLVQPGGSLRLSCAASGRTFSSYGMGWFRQAPGKEREFVAAISQSGGRTRYADSVKGRFTISRDNAKNTVYLQMNSLRPEDTAVYYCAATNFLIATAISAYDYWGQGTQVTVSS

- Kd [7]: 14 nM
B21: ODY-N2025Hu1 (antibody, V domains shown)
VH: EVQLLESGGGLVQPGGSLRLSCAASGRTFSSYGMGWFRQAPGKEREFVAAISQSGGRTRYADSVKGRFTISRDNAKNTVYLQMNSLRPEDTAVYYCAATNVLIATTISAYDYWGQGTQVTVSS

- Kd [7]: 11 nM
B22: ODY-N2026Hu1 (antibody, V domains shown)
VH: EVQLLESGGGLVQPGGSLRLSCAASGRTFSSYGMGWFRQAPGKEREFVAAISQSGGRTRYADSVKGRFTISRDNAKNTVYLQMNSLRPEDTAVYYCAATNFPIATTISAYDYWGQGTQVTVSS

- Kd [8]: 19 nM
B23: ODY-N2024Hu1 (antibody, V domains shown)
VH: EVQLLESGGGLVQPGGSLRLSCAASGRTFSSYGMGWFRQAPGKEREFVAAISQSGGRTRYADSVKGRFTISRDNVKNTVYLQMNSLRPEDTAVYYCAATNFLIATTISAHDYWGQGTQVTVSS

- Kd [9]: 9.4 nM
B24: ODY-N2011Hu1 (antibody, V domains shown)
VH: EVQLLESGGGLVQPGGSLRLSCAASGRTFASFGMGWFRQAPGKEREFVAAISQGGGRTRYADSVKGRFTISRDDAKNTVYLQMNSLRPEDTAVYYCAASYFLLATTISGYDYWGQGTQVTVSS

- Kd [8]: 13 nM
B26: ODY-N2017Hu1 (antibody, V domains shown)
VH: EVQLLESGGGLVQPGGSLRLSCAASGRTFSSYGMGWFRQAPGKEREFVAAISQSGGRTRYADSVKGRFTISRDNAKNTVYLQMNSLRPEDTAVYYCAATNFLIAATISAYDYWGQGTQVTVSS

- Kd [8]: 17 nM
B27: ODY-N2022Hu1 (antibody, V domains shown)
VH: EVQLLESGGGLVQPGGSLRLSCAASGRTFSSYGMGWFRQAPGKEREFVAAISQSGGRTRYADSVKGRFTISRDNAKNTVYLQMNSLRPEDTAVYYCAATKFLIATTISAYDYWGQGTQVTVSS

- Kd [9]: 9.4 nM
B28: ODY-N2010Hu1 (antibody, V domains shown)
VH: EVQLLESGGGLVQPGGSLRLSCAASGRTFSSYGMGWFRQAPGKEREFVVAISGSGGRTRYADSVKGRFTISRDNAKNTVYLQMNSLRPEDTAVYYCAASDFLIATSISAYDYWGQGTQVTVSS

- Kd [9]: 22 nM
B29: ODY-N2008Hu1 (antibody, V domains shown)
VH: EVQLLESGGGLVQPGGSLRLSCAASGRTFASFGMGWFRQAPGKEREFVAAISRGGGRTRYADSVKGRFTISRDDAKNTVYLQMNSLRPEDTAVYYCAASYFLLATTISGYDYWGQGTQVTVSS

- Kd [8]: 12 nM
B30: ODY-N2016Hu1 (antibody, V domains shown)
VH: EVQLLESGGGLVQPGGSLRLSCAASGRTFADFGMGWFRQAPGKEREFVAAISRSGGRTRYADSVKGRFTISRDDAKNTVYLQMNSLRPEDTAVYYCAASYFLLAITISGYDYWGQGTQVTVSS

Continued, binder first:

B1: ODY-N1783Hu1 (antibody, V domains shown)
VH: EVQLLESGGGLAQPGGSLRLSCAASGFTFSNYAMSWARQAPGKGLEWVSGIYSDGSGTYYADSVKGRFTISRDNAKNTVYLQMNSLRPEDTAVYYCSKGARSGSYYPWDDVWGQGTQVTVSS
- Kd [1]: 107 nM

B2: ODY-N1811Hu1 (antibody, V domains shown)
VH: EVQLLESGGGLAQPGGSLRLSCAASGFTFSNYAMSWARQAPGKGLEWVSGIYSDSSGTYYADSVKGRFTISRDNAKNTVYLQMNSLRPEDTAVYYCAKGRGSGSYYPLDDYWGQGTQVTVSS
- Kd [2]: 348 nM

B3: ODY-48C10Hu1 (antibody, V domains shown)
VH: EVQLLESGGGLAQPGGSLRLSCAASGFTFSNYAMSWTRQAPGKGLEWVSGIYSDGSGTYYADSVKGRFTISRDNAKNTVYLQMNSLRPEDTAVYYCAKGRNSGSYYPFDDYWGQGTQVTVSS
- Kd [1]: 66 nM

B4: 46A3 (VHH)
VHH: EVQLLESGGGLAQPGGSLRLSCAASGFTFSNYAMSWARQAPGKGLEWVSGIYSDGSGTYYADSVKGRFTISRDNAKNTVYLQMNSLRPEDTAVYYCAKGRNSGSYYPWDDYWGQGTQVTVSS
- Kd (cCD25): 34 nM

B5: ODY-N1808Hu1 (antibody, V domains shown)
VH: EVQLLESGGGLAQPGGSLRLSCAASGFTFSNYAMSWVRQAPGKGLEWVSGIYSDGSGTYYADSVKGRFTISRDNAKNTVYLQMNSLRPEDTAVYYCATGKHSGSYYPWDDYWGQGTQVTVSS
- Kd [2]: 241 nM

B6: ODY-N1810Hu1 (antibody, V domains shown)
VH: EVQLLESGGGLAQPGGSLRLSCAASGFTFSNYAMSWARQAPGKGLEWVSGIYSDSSGTYYADSVKGRFTISRDNAKNTVYLQMNSLRPEDTAVYYCVKGRGSGSYYPFDDYWGQGTQVTVSS
- Kd [2]: 62 nM

B7: ODY-N1769Hu1 (antibody, V domains shown)
VH: EVQLLESGGGLAQPGGSLRLSCAASGFTFSNYAMSWVRQAPGKGLEWVSGIYSDGSGTYYADSVKGRFTISRDNAKNTVYLQMNSLRPEDTAVYYCSKGRHSGSYYPWDEYWGQGTQVTVSS
- Kd [1]: 49 nM

B8: ODY-48D11Hu1 (antibody, V domains shown)
VH: EVQLLESGGGLVQPGGSLRLSCAASGFTFSNYAMSWARQAPGKGLEWVSGIYSDGSGTYYADSVKGRFTISRDNAKNTVYLQMNSLRPEDTAVYYCAKGRNSGSYYPFDDYWGQGTQVTVSS
- Kd [1]: 102 nM

B9: ODY-N1812Hu1 (antibody, V domains shown)
VH: EVQLLESGGGLAQPGGSLRLSCAASGFTFSNYAMSWARQAPGKGLEWVSGIYSDSSGTYYADSVKGRFTISRDNAKNTVYLQMNSLRPEDTAVYYCAKGRGSGGYYPFDDYWGQGTQVTVSS
- Kd [2]: 149 nM

B10: ODY-N1998Hu1 (antibody, V domains shown)
VH: EVQLVESGGGLVQPGGSLRLSCAASGRRFSTLIMGWYRQAPGKQRELVATIERGGTPTYADSVKGRFTISRDNAKNTVYLQMNSLRPEDTAVYYCKTLRYWGQGTQVTVSS
- Kd [3]: 31 nM

B11: ODY-N1974Hu1 (antibody, V domains shown)
VH: EVQLVESGGGLVQPGGSLRLSCAASGRKFSTLIMAWYRQAPGKQRELVATVDRGGTTTYADSVKGRFTISRDNAKNTTYLQMNSLRPEDTAVYYCNALRNWGQGTQVTVSS
- Kd [4]: 20 nM

B12: ODY-N2003Hu1 (antibody, V domains shown)
VH: EVQLVESGGGLVQPGGSLRLSCAASGRKFSTLIMAWYRQAPGKQRELVATIDRDGTTTYADSVKGRFTISRDNAKNTVYLQMNSLRPEDTAVYYCSTLRYWGQGTQVTVSS
- Kd [5]: 7.6 nM

B13: ODY-N1955Hu1 (antibody, V domains shown)
VH: EVQLVESGGGLVQPGGSLRLSCAASGRSFSTLIMAWYRQAPGKQRELVATIERGGTPTYADSVKGRFTISRDNAKNTVYLQMNSLRPEDTAVYYCNALGYWGQGTQVTVSS
- Kd [6]: 13 nM

B14: ODY-N1978Hu1 (antibody, V domains shown)
VH: EVQLVESGGGLVQPGGSLRLSCAASGRSFSTLIMGWYRQAPGKQRELVATIERGGTTTYADSVKGRFTISRDNAKNTVYLQMNSLRPEDTAVYYCNALRDWGQGTQVTVSS
- Kd [4]: 26 nM

B15: ODY-N1961Hu1 (antibody, V domains shown)
VH: EVQLVESGGGLVQPGGSLRLSCAASGRSFSTLIMAWYRQAPGKQRELVATIERGGTTTYADSVKGRFTASRDNAKNTVYLQMNSLRPEDTAVYYCNALGYWGQGTQVTVSS
- Kd [6]: 11 nM

B16: ODY-N1999Hu1 (antibody, V domains shown)
VH: EVQLVESGGGLVQPGGSLRLSCAASGRKFSTLIMGWYRQAPGKQRELVATIERDDTTTYADSVKGRFTISRDNAKNTVYLQMNSLRPEDTAVYYCKTLRYWGQGTQVTVSS
- Kd [3]: 13 nM

B17: ODY-N1970Hu1 (antibody, V domains shown)
VH: EVQLVESGGGLVQPGGSLRLSCAASGRSFSTLIMGWYRQAPGKQRELVATIERGGTTTYADSVKGRFTISRDNAKNTVYLQMNSLRPEDTAVYYCNALLYWGQGTQVTVSS
- Kd [6]: 12 nM

B18: ODY-N2000Hu1 (antibody, V domains shown)
VH: EVQLVESGGGLVQPGGSLRLSCAASGRKFSTLIMGWYRQAPGKQRELVATIERDDTTTYADSVKGRFTISRDNAKNTVYLQMNSLRPEDTAVYYCTTLRYWGQGTQVTVSS
- Kd [3]: 14 nM

B19: ODY-N2001Hu1 (antibody, V domains shown)
VH: EVQLVESGGGLVQPGGSLRLSCAASGRKFSTLIMAWYRQAPGKQRELVATIDRDGTTTYADSVKGRFTISRDNAKNTVYLQMNSLRPEDTAVYYCKTLRYWGQGTQVTVSS
- Kd [3]: 18 nM

B25: ODY-N2005Hu1 (antibody, V domains shown)
VH: EVQLLESGGGLVQPGGSLRLSCAASGRTFSSYGMGWFRQAPGKEREFVAAISQSGGRTRYADSVKGRFTISRDNAKNTVYLQMNSLRPEDTAVYYCAATNFLIATTISAYDYWGQGTQVTVSS
- Kd [9]: 13 nM

From US20260258143A1 (published 2026)
